Data reported in publication PMC9744743, “Introducing or removing heparan sulfate binding sites does not alter brain uptake of the blood–brain barrier shuttle scFv8D3” (Scientific Reports, 2022).

Target: T1, recombinant mouse TfR extracellular domain protein (Mus musculus, UniProt Q62351)
T1 construct: transferrin receptor (TfR), mouse, extracellular domain; also called transferrin receptor; source: recombinant, prepared in our lab
Experiment: ELISA; indirect ELISA; half-area plates coated with 50 ng/well recombinant mouse TfR extracellular domain in PBS overnight at 4 °C, blocked with 1% BSA; serial dilutions of scFvs 2 h at RT in PBS with 0.1% BSA and 0.05% Tween-20; detected by mouse anti-Strep-Tag II and HRP goat anti-mouse
Conditions: both partners purified

T1 sequence (Q62351 89-763): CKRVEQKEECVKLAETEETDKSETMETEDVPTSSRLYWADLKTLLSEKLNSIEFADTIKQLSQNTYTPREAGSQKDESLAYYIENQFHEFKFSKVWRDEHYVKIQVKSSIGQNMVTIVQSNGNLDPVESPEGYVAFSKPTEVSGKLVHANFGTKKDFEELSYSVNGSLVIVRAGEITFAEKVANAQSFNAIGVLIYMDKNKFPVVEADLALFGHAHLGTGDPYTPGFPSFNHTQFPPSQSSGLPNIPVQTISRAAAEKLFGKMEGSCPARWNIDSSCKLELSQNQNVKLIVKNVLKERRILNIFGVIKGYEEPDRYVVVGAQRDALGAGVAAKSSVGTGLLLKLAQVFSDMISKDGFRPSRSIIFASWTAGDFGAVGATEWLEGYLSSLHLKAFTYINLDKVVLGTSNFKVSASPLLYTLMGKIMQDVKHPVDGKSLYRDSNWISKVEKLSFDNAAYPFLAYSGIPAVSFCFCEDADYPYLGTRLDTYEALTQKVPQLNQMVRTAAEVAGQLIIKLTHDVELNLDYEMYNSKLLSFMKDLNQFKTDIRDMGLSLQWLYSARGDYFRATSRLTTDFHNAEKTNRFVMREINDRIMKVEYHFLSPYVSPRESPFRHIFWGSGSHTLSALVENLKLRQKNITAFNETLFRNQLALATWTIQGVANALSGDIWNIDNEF

Row | binding result | Binder
1 | binds | HS(−)scFv8D3 mutant (K42Q_K43Q and K243Q_R244Q) (scFv, V domains shown, as the heavy chain variable domain of m1 with the stated changes; numbers count on: the whole scFv8D3 chain; linker, printed as SGSTS (G4S)3; as the light chain variable domain of m1 with the stated changes; Same tag, linkers and signal peptide as m1; also called HS minus mutant; source: Expi293 cells, transfected, purified from supernatant (Strep-Tactin XT)) VH: EVQLVESGGGLVQPGNSLTLSCVASGFTFSNYGMHWIRQAPQQGLEWIAMIYYDSSKMNYADTVKGRFTISRDNSKNTLYLEMNSLRSEDTAMYYCAVPTSHYVVDVWGQGVSVTVSS VL: DIQMTQSPASLSASLEEIVTITCQASQDIGNWLAWYQQKPGKSPQLLIYGATSLADGVPSRFSGSRSGTQFSLKISRVQVEDIGIYYCLQAYNTPWTFGGGTKLELQ
2 | binds | HS(+)scFv8D3 mutant (S75K and P176K) (scFv, V domains shown, as the heavy chain variable domain of m1 with the stated change; numbers count on: the whole scFv8D3 chain; linker, printed as SGSTS (G4S)3; as the light chain variable domain of m1 with the stated change; Same tag, linkers and signal peptide as m1; That S75 lies in the first domain and P176 in the second is worked out from the residue numbers; also called HS plus mutant; source: Expi293 cells, …) VH: EVQLVESGGGLVQPGNSLTLSCVASGFTFSNYGMHWIRQAPKKGLEWIAMIYYDSSKMNYADTVKGRFTISRDNKKNTLYLEMNSLRSEDTAMYYCAVPTSHYVVDVWGQGVSVTVSS VL: DIQMTQSPASLSASLEEIVTITCQASQDIGNWLAWYQQKKGKSPQLLIYGATSLADGVPSRFSGSRSGTQFSLKISRVQVEDIGIYYCLQAYNTPWTFGGGTKLELK
